In publication PMC11467436, “Novel mechanisms of MITF regulation identified in a mouse suppressor screen”:

What was measured:
Conditions in all cases: protein: recombinant; tags: none (His6-SUMO removed by ULP-1); unlabeled; chain copies: 2; label: Cy3B (5' positive strand); CF660R (5' negative strand); blunt
[1] = target: T1, hMITF-sp (Homo sapiens, UniProt O75030-10 1-413); assay: FCS; 300 mM KCl; Single-molecule: 0.5 nM DNA, 10 mM Tris pH 7.4, 0.1 mM EDTA, 165 or 300 mM KCl, 1 mM MgCl2, 143 mM 2-ME, 0.01% Tween-20, 0.1 mg/mL BSA. EMSA: 10 mM Hepes pH 7.9, 50 mM NaCl, 5 mM MgCl2, 0.1 mM EDTA, 2 mM DTT, 5% ethylene glycol, 5% glycerol, BSA, 30 min on ice
[2] = target: T2, hMITF-WT (Homo sapiens, UniProt O75030-9 1-419); assay: as above
[3] = target: T3, hMITF-sl (Homo sapiens, UniProt O75030-10 1-309); assay: as above
[4] = target: T1, hMITF-sp; assay: single-molecule fluorescence anisotropy; 300 mM KCl; Single-molecule: 0.5 nM DNA, 10 mM Tris pH 7.4, 0.1 mM EDTA, 165 or 300 mM KCl, 1 mM MgCl2, 143 mM 2-ME, 0.01% Tween-20, 0.1 mg/mL BSA. EMSA: 10 mM Hepes pH 7.9, 50 mM NaCl, 5 mM MgCl2, 0.1 mM EDTA, 2 mM DTT, 5% ethylene glycol, 5% glycerol, BSA, 30 min on ice
[5] = target: T2, hMITF-WT; assay: as above
[6] = target: T3, hMITF-sl; assay: as above
[7] = target: T1, hMITF-sp; assay: smFRET; 300 mM KCl; Single-molecule: 0.5 nM DNA, 10 mM Tris pH 7.4, 0.1 mM EDTA, 165 or 300 mM KCl, 1 mM MgCl2, 143 mM 2-ME, 0.01% Tween-20, 0.1 mg/mL BSA. EMSA: 10 mM Hepes pH 7.9, 50 mM NaCl, 5 mM MgCl2, 0.1 mM EDTA, 2 mM DTT, 5% ethylene glycol, 5% glycerol, BSA, 30 min on ice
[8] = target: T2, hMITF-WT; assay: as above
[9] = target: T3, hMITF-sl; assay: as above

T2 sequence (O75030 other isoform, or with tags, fused parts or gaps): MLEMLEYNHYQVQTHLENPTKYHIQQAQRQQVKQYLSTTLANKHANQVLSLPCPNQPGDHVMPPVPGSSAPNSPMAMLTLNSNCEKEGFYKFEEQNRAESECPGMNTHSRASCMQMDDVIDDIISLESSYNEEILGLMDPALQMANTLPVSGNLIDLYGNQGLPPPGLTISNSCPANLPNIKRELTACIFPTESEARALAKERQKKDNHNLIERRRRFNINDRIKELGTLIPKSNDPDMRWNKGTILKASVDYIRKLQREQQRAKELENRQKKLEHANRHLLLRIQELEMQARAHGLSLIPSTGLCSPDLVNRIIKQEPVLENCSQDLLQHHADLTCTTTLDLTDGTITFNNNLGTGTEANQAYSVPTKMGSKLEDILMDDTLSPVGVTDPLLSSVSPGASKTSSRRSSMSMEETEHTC
T1 sequence (O75030 other isoform, or with tags, fused parts or gaps): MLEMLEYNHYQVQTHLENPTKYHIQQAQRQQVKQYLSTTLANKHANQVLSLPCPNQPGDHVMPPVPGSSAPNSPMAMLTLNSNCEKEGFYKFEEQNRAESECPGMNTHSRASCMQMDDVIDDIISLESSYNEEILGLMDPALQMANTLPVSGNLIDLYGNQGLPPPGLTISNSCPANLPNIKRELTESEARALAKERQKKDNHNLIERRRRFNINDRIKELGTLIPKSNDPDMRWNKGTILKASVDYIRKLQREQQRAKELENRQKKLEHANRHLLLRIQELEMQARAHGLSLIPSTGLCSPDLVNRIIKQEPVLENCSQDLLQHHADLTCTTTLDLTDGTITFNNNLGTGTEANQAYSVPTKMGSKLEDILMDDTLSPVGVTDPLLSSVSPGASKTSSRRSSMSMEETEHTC
T3 sequence (O75030 other isoform, or with tags, fused parts or gaps): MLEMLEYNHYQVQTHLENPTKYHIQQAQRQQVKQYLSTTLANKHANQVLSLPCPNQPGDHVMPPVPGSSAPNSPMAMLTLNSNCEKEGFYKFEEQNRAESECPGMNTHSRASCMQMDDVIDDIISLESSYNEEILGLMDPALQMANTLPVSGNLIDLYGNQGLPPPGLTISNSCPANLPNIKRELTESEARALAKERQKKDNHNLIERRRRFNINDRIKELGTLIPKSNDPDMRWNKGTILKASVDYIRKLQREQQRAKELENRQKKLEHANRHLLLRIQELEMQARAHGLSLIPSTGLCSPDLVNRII

B1: M-box smFRET probe (dsDNA)
DNA 1: GAGATCATGTGTTGA
DNA 2: TCAACACATGATCTC
modifications: 5' C6-amino linker on both strands
Binder B1 has a Kd [1] of 5.8 ± 3.5 nM, a Kd [2] of 4.5 ± 1.4 nM and a Kd [3] of 3.1 ± 1.6 nM. It also gave a Kd [4] of 1 ± 0.4 nM, a Kd [5] of 1.9 ± 0.6 nM and a Kd [6] of 0.9 ± 0.4 nM. The Kd [7] was 1.7 ± 0.9 nM, the Kd [8] was 1.6 ± 1.4 nM and the Kd [9] was 1.6 ± 0.5 nM.
